Laboratory results reported in IntAct's records for PubMed 31515488.

B1: Cyclin-D1-binding protein 1 (Homo sapiens), O95273 (parent)
chain: MASATAPAAAVPTLASPLEQLRHLAEELRLLLPRVRVGEAQETTEEFNREMFWRRLNEAAVTVSREATTLTIVFSQLPLPSPQETQKFCEQVHAAIKAFIAVYYLLPKDQGITLRKLVRGATLDIVDGMAQLMEVLSVTPTQSPENNDLISYNSVWVACQQMPQIPRDNKAAALLMLTKNVDFVKDAHEEMEQAVEECDPYSGLLNDTEENNSDNHNHEDDVLGFPSNQDLYWSEDDQELIIPCLALVRASKACLKKIRMLVAENGKKDQVAQLDDIVDISDEISPSVDDLALSIYPPMCHLTVRINSAKLVSVLKKALEITKASHVTPQPEDSWIPLLINAIDHCMNRIKELTQSELEL
partner: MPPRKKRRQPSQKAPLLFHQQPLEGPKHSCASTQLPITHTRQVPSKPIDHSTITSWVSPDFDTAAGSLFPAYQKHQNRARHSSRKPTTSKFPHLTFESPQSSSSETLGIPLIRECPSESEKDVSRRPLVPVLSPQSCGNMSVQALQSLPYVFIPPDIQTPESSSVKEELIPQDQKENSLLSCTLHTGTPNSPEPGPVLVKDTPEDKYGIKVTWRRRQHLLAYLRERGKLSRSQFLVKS
B2: Cytohesin-4 (Homo sapiens), Q9UIA0 (parent)
chain: MDLCHPEPAELSSGETEELQRIKWHRKQLLEDIQKLKDEIADVFAQIDCFESAEESRMAQKEKELCIGRKKFNMDPAKGIQYFIEHKLLTPDVQDIARFLYKGEGLNKTAIGTYLGERDPINLQVLQAFVDCHEFANLNLVQALRQFLWSFRLPGEAQKIDRMMEAFATRYCLCNPGVFQSTDTCYVLSFSIIMLNTSLHNPNVRDRPPFERFVSMNRGINNGSDLPEDQLRNLFDSIKSEPFSIPEDDGNDLTHTFFNPDREGWLLKLGGRVKTWKRRWFILTDNCLYYFEFTTDKEPRGIIPLENLSVQKVDDPKKPFCLELYNPSCRGQKIKACKTDGDGRVVEGKHESYRISATSAEERDQWIESIRASITRVPFYDLVSTRKKKIASKQ
partner: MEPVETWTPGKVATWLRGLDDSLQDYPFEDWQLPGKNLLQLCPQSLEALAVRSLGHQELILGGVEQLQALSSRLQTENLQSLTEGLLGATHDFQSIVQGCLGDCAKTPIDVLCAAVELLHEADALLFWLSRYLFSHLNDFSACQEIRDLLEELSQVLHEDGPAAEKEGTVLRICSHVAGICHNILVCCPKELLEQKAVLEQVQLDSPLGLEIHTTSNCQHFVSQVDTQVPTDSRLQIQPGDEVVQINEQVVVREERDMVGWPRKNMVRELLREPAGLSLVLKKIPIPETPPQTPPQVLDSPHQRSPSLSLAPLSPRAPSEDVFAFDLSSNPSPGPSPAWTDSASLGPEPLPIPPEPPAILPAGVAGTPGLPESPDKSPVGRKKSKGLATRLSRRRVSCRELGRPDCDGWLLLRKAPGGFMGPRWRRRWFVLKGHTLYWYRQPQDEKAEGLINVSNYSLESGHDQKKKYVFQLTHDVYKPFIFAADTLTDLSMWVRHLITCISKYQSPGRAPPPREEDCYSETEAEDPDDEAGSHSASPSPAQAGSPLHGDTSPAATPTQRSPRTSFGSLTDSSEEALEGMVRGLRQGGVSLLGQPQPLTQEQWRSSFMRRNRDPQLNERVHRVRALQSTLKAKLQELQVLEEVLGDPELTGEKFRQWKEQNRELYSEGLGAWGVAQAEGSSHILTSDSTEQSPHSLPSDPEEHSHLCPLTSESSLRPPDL
B3: Dual specificity protein phosphatase 21 (Homo sapiens), Q9H596 (parent)
chain: MTASASSFSSSQGVQQPSIYSFSQITRSLFLSNGVAANDKLLLSSNRITAIVNASVEVVNVFFEGIQYIKVPVTDARDSRLYDFFDPIADLIHTIDMRQGRTLLHCMAGVSRSASLCLAYLMKYHSMSLLDAHTWTKSRRPIIRPNNGFWEQLINYEFKLFNNNTVRMINSPVGNIPDIYEKDLRMMISM

Variants of: B1
Conditions: with rhno1_human RHNO1, Q9BSD3

| effect of a mutation on the interaction | Variant |
| --- | --- |
| disrupting interaction strength | MASATAPAAAVPTLASPLEQLRHLAEELRLLLPRVRVGEAQETTEEFNREMFWRRLNEAAVTVSREATTLTIVFSQLPLPSPQETQKFCEQVHAAIKAFIAVYYLLPKDQGITLRKLVRGATLDIVDGMAQLMEVLSVTPTQSPENNDLISYNSVWVACQQMPQIPRDNKAAALLMLTKNVDFVKDAHEEMEQAVEECDPYSGLLNDTEENNSDNHNHEDDVLGFPSNQDLYWSEDDQELIIPCLALVRASKACLKKIRMLVAENGKKDQVAQLDDTVDISDEISPSVDDLALSIYPPMCHLTVRINSAKLVSVLKKALEITKASHVTPQPEDSWIPLLINAIDHCMNRIKELTQSELEL [I277T] |

Variants of: B2
Conditions: with cnkr1_human CNKSR1, Q969H4

| effect of a mutation on the interaction | Variant |
| --- | --- |
| with no effect | MDLCHPEPAELSSGETEELQRIKWHRKQLLEDIQKLKDEIADVFAQIDCFESAEESRMAQKEKELCIGRKKFNVDPAKGIQYFIEHKLLTPDVQDIARFLYKGEGLNKTAIGTYLGERDPINLQVLQAFVDCHEFANLNLVQALRQFLWSFRLPGEAQKIDRMMEAFATRYCLCNPGVFQSTDTCYVLSFSIIMLNTSLHNPNVRDRPPFERFVSMNRGINNGSDLPEDQLRNLFDSIKSEPFSIPEDDGNDLTHTFFNPDREGWLLKLGGRVKTWKRRWFILTDNCLYYFEFTTDKEPRGIIPLENLSVQKVDDPKKPFCLELYNPSCRGQKIKACKTDGDGRVVEGKHESYRISATSAEERDQWIESIRASITRVPFYDLVSTRKKKIASKQ [M74V] |
| with no effect | MDLCHPEPTELSSGETEELQRIKWHRKQLLEDIQKLKDEIADVFAQIDCFESAEESRMAQKEKELCIGRKKFNMDPAKGIQYFIEHKLLTPDVQDIARFLYKGEGLNKTAIGTYLGERDPINLQVLQAFVDCHEFANLNLVQALRQFLWSFRLPGEAQKIDRMMEAFATRYCLCNPGVFQSTDTCYVLSFSIIMLNTSLHNPNVRDRPPFERFVSMNRGINNGSDLPEDQLRNLFDSIKSEPFSIPEDDGNDLTHTFFNPDREGWLLKLGGRVKTWKRRWFILTDNCLYYFEFTTDKEPRGIIPLENLSVQKVDDPKKPFCLELYNPSCRGQKIKACKTDGDGRVVEGKHESYRISATSAEERDQWIESIRASITRVPFYDLVSTRKKKIASKQ [A9T] |

Variants of: B3
Conditions: with gors2_human GORASP2, Q9H8Y8

| effect of a mutation on the interaction | Variant |
| --- | --- |
| with no effect | MTASASSFSSSQGVQQPFIYSFSQITRSLFLSNGVAANDKLLLSSNRITAIVNASVEVVNVFFEGIQYIKVPVTDARDSRLYDFFDPIADLIHTIDMRQGRTLLHCMAGVSRSASLCLAYLMKYHSMSLLDAHTWTKSRRPIIRPNNGFWEQLINYEFKLFNNNTVRMINSPVGNIPDIYEKDLRMMISM |
